The assay addresses T1, human calcitonin receptor (human, UniProt P30988 25-474).
T1 construct: whole, on cells; Used as cell membranes prepared from the transfected BHK cells (Assay VII), not as intact cells; also called hCTR; hCT
T1 sequence (looked up): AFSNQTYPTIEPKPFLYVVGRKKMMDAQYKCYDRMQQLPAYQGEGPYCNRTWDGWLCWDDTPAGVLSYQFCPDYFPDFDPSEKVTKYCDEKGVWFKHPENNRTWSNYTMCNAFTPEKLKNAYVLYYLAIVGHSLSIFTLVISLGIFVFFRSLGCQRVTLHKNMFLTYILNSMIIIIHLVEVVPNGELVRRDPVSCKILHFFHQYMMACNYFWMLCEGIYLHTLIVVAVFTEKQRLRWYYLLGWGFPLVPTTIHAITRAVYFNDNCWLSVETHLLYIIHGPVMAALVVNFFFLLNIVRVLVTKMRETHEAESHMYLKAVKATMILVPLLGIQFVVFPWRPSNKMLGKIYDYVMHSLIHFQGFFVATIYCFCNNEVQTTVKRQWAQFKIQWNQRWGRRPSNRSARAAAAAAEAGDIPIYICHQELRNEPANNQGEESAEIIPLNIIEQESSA
Briefly: SPA competition against 125I-calcitonin, membranes with human calcitonin receptor (Assay VII). In a few lines: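 BHK hCTR membranes 35 ng/μL + SPA beads 0.05 mg/well; buffer 50 mM Hepes pH 7.4, 1 mM CaCl2, 5 mM MgCl₂, 0.1% OA, 0.02% Tween20. 120 min, 25° C., shaking. Scintillation count; IC50 by one-site binding competition.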

Numbered stars: 1 amine (or outer) side, 2 acyl side, 3 side chain; on linkers, the order of the positions; unused ones are H or OH. Bridge positions count the residues as written; N and C are the ends. * marks the point of attachment. C20 diacid = O=C(O)CCCCCCCCCCCCCCCCCCC(=O)*; γGlu = O=C(O)[C@H](CCC(=O)[*:2])N[*:1]

B1: N^-1-[(4S)-4-carboxy-4-(19-carboxynonadecanoylamino)butanoyl]-Gly[Arg1,Arg17,Pro21,Pro27,His35]-h-amylin (peptide)
peptide: {C20 diacid-γGlu}-GRCNTATCATQRLANFLRHSSPNFGAIPSSTNVGSHTY-NH2
modifications: disulfide 3-8
SMILES: CC[C@H](C)[C@H](NC(=O)[C@H](C)NC(=O)CNC(=O)[C@H](Cc1ccccc1)NC(=O)[C@H](CC(N)=O)NC(=O)[C@@H]1CCCN1C(=O)[C@H](CO)NC(=O)[C@H](CO)NC(=O)[C@H](Cc1c[nH]cn1)NC(=O)[C@H](CCCNC(=N)N)NC(=O)[C@H](CC(C)C)NC(=O)[C@H](Cc1ccccc1)NC(=O)[C@H](CC(N)=O)NC(=O)[C@H](C)NC(=O)[C@H](CC(C)C)NC(=O)[C@H](CCCNC(=N)N)NC(=O)[C@H](CCC(N)=O)NC(=O)[C@@H](NC(=O)[C@H](C)NC(=O)[C@@H]1CSSC[C@H](NC(=O)[C@H](CCCNC(=N)N)NC(=O)CNC(=O)CC[C@H](NC(=O)CCCCCCCCCCCCCCCCCCC(=O)O)C(=O)O)C(=O)N[C@@H](CC(N)=O)C(=O)N[C@@H]([C@@H](C)O)C(=O)N[C@@H](C)C(=O)N[C@@H]([C@@H](C)O)C(=O)N1)[C@@H](C)O)C(=O)N1CCC[C@H]1C(=O)N[C@@H](CO)C(=O)N[C@@H](CO)C(=O)N[C@H](C(=O)N[C@@H](CC(N)=O)C(=O)N[C@H](C(=O)NCC(=O)N[C@@H](CO)C(=O)N[C@@H](Cc1c[nH]cn1)C(=O)N[C@H](C(=O)N[C@@H](Cc1ccc(O)cc1)C(N)=O)[C@@H](C)O)C(C)C)[C@@H](C)O
notes: also called compound 47
Take B1: the IC50 amounted to 15.5 nM.

B2: N^-1-[(4S)-4-carboxy-4-(19-carboxynonadecanoylamino)butanoyl]-Gly[Arg1,Arg17,Pro21,Pro27]-h-amylin (peptide)
peptide: {C20 diacid-γGlu}-GRCNTATCATQRLANFLRHSSPNFGAIPSSTNVGSNTY-NH2
modifications: disulfide 3-8
SMILES: CC[C@H](C)[C@H](NC(=O)[C@H](C)NC(=O)CNC(=O)[C@H](Cc1ccccc1)NC(=O)[C@H](CC(N)=O)NC(=O)[C@@H]1CCCN1C(=O)[C@H](CO)NC(=O)[C@H](CO)NC(=O)[C@H](Cc1c[nH]cn1)NC(=O)[C@H](CCCNC(=N)N)NC(=O)[C@H](CC(C)C)NC(=O)[C@H](Cc1ccccc1)NC(=O)[C@H](CC(N)=O)NC(=O)[C@H](C)NC(=O)[C@H](CC(C)C)NC(=O)[C@H](CCCNC(=N)N)NC(=O)[C@H](CCC(N)=O)NC(=O)[C@@H](NC(=O)[C@H](C)NC(=O)[C@@H]1CSSC[C@H](NC(=O)[C@H](CCCNC(=N)N)NC(=O)CNC(=O)CC[C@H](NC(=O)CCCCCCCCCCCCCCCCCCC(=O)O)C(=O)O)C(=O)N[C@@H](CC(N)=O)C(=O)N[C@@H]([C@@H](C)O)C(=O)N[C@@H](C)C(=O)N[C@@H]([C@@H](C)O)C(=O)N1)[C@@H](C)O)C(=O)N1CCC[C@H]1C(=O)N[C@@H](CO)C(=O)N[C@@H](CO)C(=O)N[C@H](C(=O)N[C@@H](CC(N)=O)C(=O)N[C@H](C(=O)NCC(=O)N[C@@H](CO)C(=O)N[C@@H](CC(N)=O)C(=O)N[C@H](C(=O)N[C@@H](Cc1ccc(O)cc1)C(N)=O)[C@@H](C)O)C(C)C)[C@@H](C)O
notes: also called compound 46
As to B2, the IC50 worked out at 9.53 nM.

As a reminder, the IC50 is the point on the concentration scale where inhibition reaches its midpoint.

The values above are taken from patent US20140087995A1 (published 2014).
